From patent publication US20170226560 come the findings set out here.

This data set relates to T1, peptide substrate SEQ ID NO: 1 Lys-Lys-Gly-Phe-Pro-Arg-Gly-Gly-Asp-Cys.
T1 sequence: KKGFPRGGDC

For trypsin, the “limit of detection of trypsin (750 nM peptide, 60 min pre-exposure, 20 nm gold nanoparticles)” value was “the limit of detection of the colloidal gold nanoparticle-based colorimetric assay developed in the present invention for sensing trypsin is about 20 pM of trypsin”; the “limit of detection of trypsin (750 nM peptide, 3 hours pre-exposure, 20 nm gold nanoparticles)” value is “from 20 pM to approximately 2 to 10 pM”; the “limit of detection of trypsin (750 nM peptide, 3 hours pre-exposure, 30 nm gold nanoparticles)” value was “further improved from about 2 to 10 pM to a range of from 500 fM to 2 pM”; the “ratio of the absorbance at 650 nm/absorbance at 520 nm (750 nM peptide, 60 min pre-exposure, trypsin up to 2 nM)” value was “As the amount of trypsin is increased the absorbance band shifts toward what the gold nanoparticles show in the absence of any peptide and the ratio approaches a value of about 0.05”. Also, the “time for complete hydrolytic cleavage (gold nanoparticle aggregation, ratio of absorbance at 650 nm to 520 nm; 1000 nM peptide, 200 pM trypsin, 20 C)” value was “it took more than 60 min for complete hydrolytic cleavage of a solution of 1000 nM of the peptide substrate SEQ ID NO: 1 Lys-Lys-Gly-Phe-Pro-Arg-Gly-Gly-Asp-Cys by trypsin at a concentration of 200 pM”.
